Measured values from article PMC9942953, “Merlin tumor suppressor function is regulated by PIP2-mediated dimerization” (PLOS ONE, 2023).

T1: Merlin L64P, patient derived mutant, P35240
T1 chain: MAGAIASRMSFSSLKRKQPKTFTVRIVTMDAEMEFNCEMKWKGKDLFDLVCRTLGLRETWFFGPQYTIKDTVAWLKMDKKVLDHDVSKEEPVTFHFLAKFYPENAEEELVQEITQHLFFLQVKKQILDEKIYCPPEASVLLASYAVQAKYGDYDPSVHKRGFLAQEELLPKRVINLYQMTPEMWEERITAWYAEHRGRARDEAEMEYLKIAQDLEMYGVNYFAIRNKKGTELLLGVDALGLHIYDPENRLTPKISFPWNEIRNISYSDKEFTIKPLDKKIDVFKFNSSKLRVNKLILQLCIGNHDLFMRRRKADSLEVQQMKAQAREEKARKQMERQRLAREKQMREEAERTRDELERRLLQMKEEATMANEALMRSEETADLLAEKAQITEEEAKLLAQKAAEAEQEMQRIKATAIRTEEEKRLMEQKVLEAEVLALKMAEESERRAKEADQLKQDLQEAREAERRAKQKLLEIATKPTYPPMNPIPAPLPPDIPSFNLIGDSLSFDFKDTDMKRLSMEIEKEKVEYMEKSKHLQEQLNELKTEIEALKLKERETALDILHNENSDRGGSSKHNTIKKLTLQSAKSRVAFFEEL

B1: Merlin ΔN18, deletion of the N-terminal 18 amino acids (domain or fragment, UniProt P35240 19-595, looked up)
chain: PKTFTVRIVTMDAEMEFNCEMKWKGKDLFDLVCRTLGLRETWFFGLQYTIKDTVAWLKMDKKVLDHDVSKEEPVTFHFLAKFYPENAEEELVQEITQHLFFLQVKKQILDEKIYCPPEASVLLASYAVQAKYGDYDPSVHKRGFLAQEELLPKRVINLYQMTPEMWEERITAWYAEHRGRARDEAEMEYLKIAQDLEMYGVNYFAIRNKKGTELLLGVDALGLHIYDPENRLTPKISFPWNEIRNISYSDKEFTIKPLDKKIDVFKFNSSKLRVNKLILQLCIGNHDLFMRRRKADSLEVQQMKAQAREEKARKQMERQRLAREKQMREEAERTRDELERRLLQMKEEATMANEALMRSEETADLLAEKAQITEEEAKLLAQKAAEAEQEMQRIKATAIRTEEEKRLMEQKVLEAEVLALKMAEESERRAKEADQLKQDLQEAREAERRAKQKLLEIATKPTYPPMNPIPAPLPPDIPSFNLIGDSLSFDFKDTDMKRLSMEIEKEKVEYMEKSKHLQEQLNELKTEIEALKLKERETALDILHNENSDRGGSSKHNTIKKLTLQSAKSRVAFFEEL
notes: Merlin isoform 1 without its unique N-terminal 18 amino acids; source: HEK 293T, co-transfected, in lysate; not shown: NanoLuc (probe copy) or EGFP (bait copy), C-terminal, kept
B2: Merlin L64P, patient derived mutant, P35240 1-595 (natural protein)
chain: MAGAIASRMSFSSLKRKQPKTFTVRIVTMDAEMEFNCEMKWKGKDLFDLVCRTLGLRETWFFGPQYTIKDTVAWLKMDKKVLDHDVSKEEPVTFHFLAKFYPENAEEELVQEITQHLFFLQVKKQILDEKIYCPPEASVLLASYAVQAKYGDYDPSVHKRGFLAQEELLPKRVINLYQMTPEMWEERITAWYAEHRGRARDEAEMEYLKIAQDLEMYGVNYFAIRNKKGTELLLGVDALGLHIYDPENRLTPKISFPWNEIRNISYSDKEFTIKPLDKKIDVFKFNSSKLRVNKLILQLCIGNHDLFMRRRKADSLEVQQMKAQAREEKARKQMERQRLAREKQMREEAERTRDELERRLLQMKEEATMANEALMRSEETADLLAEKAQITEEEAKLLAQKAAEAEQEMQRIKATAIRTEEEKRLMEQKVLEAEVLALKMAEESERRAKEADQLKQDLQEAREAERRAKQKLLEIATKPTYPPMNPIPAPLPPDIPSFNLIGDSLSFDFKDTDMKRLSMEIEKEKVEYMEKSKHLQEQLNELKTEIEALKLKERETALDILHNENSDRGGSSKHNTIKKLTLQSAKSRVAFFEEL

Legend:
[1] = target: the molecule itself; test: co-IP; HEK 293T co-transfected with a GFP fusion and a NanoLuc fusion; lysis in TBS, 2 mM MgCl2, 0.5% NP-40; GFP-Trap_MA; ratio of bound to unbound luciferase activity normalised to GFP fluorescence
[2] = target: T1, Merlin L64P, patient derived mutant, …; test: as above; conditions: remark: other sources report otherwise

Binder | percent dimerization relative to wild type [1] [%] | fold dimerization relative to wild type [2] [fold]
B1 | 33 | –
B2 | – | 1.28
